Laboratory results taken from patent publication US20220177587A1, “METHODS AND USES OF VARIANT CD80 FUSION PROTEINS AND RELATED CONSTRUCTS” (Alpine Immune Sciences, Inc., priority 2018, published 2022).

How the values were obtained:
[1] = biological target: human PD-L1 (human) (UniProt Q9NZQ7); assay: flow cytometry, CHO cells expressing huPD-L1
Target sequence in this assay (Q9NZQ7 19-290): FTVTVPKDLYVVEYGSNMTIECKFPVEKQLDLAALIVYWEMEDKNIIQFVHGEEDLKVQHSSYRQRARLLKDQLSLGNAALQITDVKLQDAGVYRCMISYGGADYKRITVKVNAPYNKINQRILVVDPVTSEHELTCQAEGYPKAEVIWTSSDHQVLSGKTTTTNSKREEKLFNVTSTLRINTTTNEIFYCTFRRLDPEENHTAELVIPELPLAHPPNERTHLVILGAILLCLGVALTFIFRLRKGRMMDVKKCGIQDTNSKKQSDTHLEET

[2] = biological target: CD28 (human) (UniProt P10747); assay: flow cytometry, Jurkat/IL2 reporter cells (CD28)
[3] = biological target: human CTLA-4 (human) (UniProt P16410); assay: flow cytometry, CHO cells expressing huCTLA4, vs WT CD80 ECD-Fc (R&D)
[4] = biological target: human CTLA-4 (human) (UniProt P16410); assay: flow cytometry, CHO cells expressing huCTLA4
[5] = biological target: CD28 (human) (UniProt P10747); assay: flow cytometry, Jurkat/IL2 reporter cells (CD28), vs WT CD80 ECD-Fc (R&D)
[6] = biological target: human PD-L1 (human) (UniProt Q9NZQ7); assay: flow cytometry, CHO cells expressing huPD-L1, vs WT CD80 ECD-Fc (R&D)
Target sequence in this assay (Q9NZQ7 19-290): as above

[7] = biological target: human CTLA-4 (human) (UniProt P16410); assay: flow cytometry, CHO/huCTLA-4 cells; vs WT CD80 ECD-Fc (Abcam)
[8] = biological target: human PD-L1 (human) (UniProt Q9NZQ7); assay: flow cytometry; PD-L1 MFI over CD28 MFI of the same protein
Target sequence in this assay (Q9NZQ7 19-290): as above

[9] = biological target: CD28 (human) (UniProt P10747); assay: flow cytometry, Jurkat cells (CD28); vs WT CD80 ECD-Fc (Abcam)
[10] = biological target: human CTLA-4 (human) (UniProt P16410); assay: flow cytometry, CHO cells expressing huCTLA-4
[11] = biological target: human PD-L1 (human) (UniProt Q9NZQ7); assay: flow cytometry, CHO/huPD-L1 cells; vs WT CD80 ECD-Fc (Abcam)
Target sequence in this assay (Q9NZQ7 19-290): as above

[12] = biological target: human PD-L1 (human) (UniProt Q9NZQ7)
Target sequence in this assay (Q9NZQ7 19-290 limits assumed): as the sequence (Q9NZQ7 19-290) above

[13] = biological target: CD28 (human) (UniProt P10747)
[14] = biological target: human PD-L1 (huPD-L1), on stably transduced CHO cells (human) (UniProt Q9NZQ7); assay: flow cytometry on CHO cells stably expressing huPD-L1, 33.3 nM Fc fusion, PE anti-human Fc
[15] = biological target: human PD-L1 (huPD-L1), on stably transduced CHO cells (human) (UniProt Q9NZQ7); assay: flow cytometry; ratio of MFI on CHO/huPD-L1 cells to MFI on Jurkat (CD28) cells
[16] = biological target: CD28, endogenously expressed on Jurkat/IL2 reporter cells (human) (UniProt P10747); assay: flow cytometry on Jurkat/IL2 reporter cells (endogenous CD28), 33.3 nM Fc fusion, PE anti-human Fc
[17] = biological target: human CTLA-4 (huCTLA4), on stably transduced CHO cells (human) (UniProt P16410); assay: flow cytometry on CHO cells stably expressing huCTLA4, 33.3 nM Fc fusion, PE anti-human Fc
[18] = biological target: human PD-L1 (huPD-L1), on stably transduced CHO cells (human) (UniProt Q9NZQ7); assay: flow cytometry on CHO/huPD-L1 cells; MFI relative to WT CD80 (CD80 WT IgV-Fc = 1.0)
[19] = biological target: CD28, endogenously expressed on Jurkat/IL2 reporter cells (human) (UniProt P10747); assay: flow cytometry on Jurkat (CD28) cells; MFI relative to WT CD80 (CD80 WT IgV-Fc = 1.0)
[20] = biological target: human CTLA-4 (huCTLA4), on stably transduced CHO cells (human) (UniProt P16410); assay: flow cytometry on CHO/huCTLA4 cells; MFI relative to WT CD80 (CD80 WT IgV-Fc = 1.0)

Sequence of human PD-L1 (huPD-L1), on stably transduced CHO cells (human) (Q9NZQ7 19-290): as above
Sequence of human CTLA-4 (human) (P16410 36-223): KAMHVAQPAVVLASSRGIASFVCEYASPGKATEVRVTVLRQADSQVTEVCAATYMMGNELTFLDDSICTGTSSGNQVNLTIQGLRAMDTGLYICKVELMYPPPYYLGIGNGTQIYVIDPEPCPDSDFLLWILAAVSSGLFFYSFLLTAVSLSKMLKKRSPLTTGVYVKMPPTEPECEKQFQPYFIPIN
Sequence of human CTLA-4 (huCTLA4), on stably transduced CHO cells (human) (P16410 36-223): as above

Binder | MFI at 33.3 nM [1] | MFI at 33.3 nM [2] | Fold change to WT CD80 [3] | MFI at 33.3 nM [4] | Fold change to WT CD80 [5] | Fold change to WT CD80 [6] | Fold change to WT CD80 [7] | Ratio of PDL1:CD28 [8] | Fold change to WT CD80 [9] | MFI at 33.3 nM [10] | Fold change to WT CD80 [11] | IL-2 luciferase reporter, fold increase over WT CD80-IgV-Fc at 5.0 nM [12] | IL-2 luciferase reporter, fold increase over WT CD80-IgV-Fc at 5.0 nM [13] | MFI at 33.3 nM [14] | Ratio of PDL1:CD28 [15] | MFI at 33.3 nM [16] | MFI at 33.3 nM [17] | Fold change to WT CD80 [18] | Fold change to WT CD80 [19] | Fold change to WT CD80 [20]
variant CD80 IgV-Fc E35D/M47I/T62S/L85Q (Fc fusion) VIHVTKEVKEVATLSCGHNVSVEELAQTRIYWQKDKKMVLTMMSGDINIWPEYKNRTIFDISNNLSIVILALRPSDEGTYECVVQKYEKDAFKREHLAEVTLSVKAD | 45000 MFI | 1760 MFI | 1.91 fold | 301000 MFI | 0.1 fold | 3.79 fold |  |  |  |  |  |  |  |  |  |  |  |  |  | 
variant CD80 IgV-Fc E35D/M47V (Fc fusion) VIHVTKEVKEVATLSCGHNVSVEELAQTRIYWQKDKKMVLTMMSGDVNIWPEYKNRTIFDITNNLSIVILALRPSDEGTYECVVLKYEKDAFKREHLAEVTLSVKAD | 6800 MFI | 501 MFI |  |  |  |  | 1.1 fold | 13.6 | 0.7 fold | 44600 MFI | 53.1 fold | 4.7 fold | 4.7 fold | 2940 MFI | 6 | 461 MFI | 20900 MFI | 41.7 fold | 7 fold | 10.9 fold
variant CD80 IgV-Fc E35D/D46V/M47V/V68M/L85Q (Fc fusion) VIHVTKEVKEVATLSCGHNVSVEELAQTRIYWQKDKKMVLTMMSGVVNIWPEYKNRTIFDITNNLSIMILALRPSDEGTYECVVQKYEKDAFKREHLAEVTLSVKAD | 26300 MFI | 331 MFI |  |  |  |  | 0.9 fold | 79.4 | 0.5 fold | 36500 MFI | 205 fold | 8.5 fold | 8.5 fold |  |  |  |  |  |  | 
variant CD80 IgV-Fc E35D/D46E/M47V/N63D/L85Q (Fc fusion) VIHVTKEVKEVATLSCGHNVSVEELAQTRIYWQKDKKMVLTMMSGEVNIWPEYKNRTIFDITDNLSIVILALRPSDEGTYECVVQKYEKDAFKREHLAEVTLSVKAD | 69800 MFI | 1330 MFI | 1.74 fold | 274000 MFI | 0.07 fold | 5.88 fold |  |  |  |  |  |  |  |  |  |  |  |  |  | 
variant CD80 IgV-Fc E35D/D46V/M47V/N48K/V68M (Fc fusion) VIHVTKEVKEVATLSCGHNVSVEELAQTRIYWQKDKKMVLTMMSGVVKIWPEYKNRTIFDITNNLSIMILALRPSDEGTYECVVLKYEKDAFKREHLAEVTLSVKAD | 25900 MFI | 1080 MFI |  |  |  |  | 0.6 fold | 23.9 | 1.5 fold | 23900 MFI | 203 fold | 6.1 fold | 6.1 fold |  |  |  |  |  |  | 
variant CD80 IgV-Fc E35D/M47L/A71G/L85M/F92Y (Fc fusion) VIHVTKEVKEVATLSCGHNVSVEELAQTRIYWQKDKKMVLTMMSGDLNIWPEYKNRTIFDITNNLSIVILGLRPSDEGTYECVVMKYEKDAYKREHLAEVTLSVKAD | 46700 MFI | 2460 MFI | 1.37 fold | 216000 MFI | 0.14 fold | 3.93 fold |  |  |  |  |  |  |  |  |  |  |  |  |  | 
variant CD80 IgV-Fc E35D/M47I/L85Q/D90G (Fc fusion) VIHVTKEVKEVATLSCGHNVSVEELAQTRIYWQKDKKMVLTMMSGDINIWPEYKNRTIFDITNNLSIVILALRPSDEGTYECVVQKYEKGAFKREHLAEVTLSVKAD | 35700 MFI | 4100 MFI | 1.57 fold | 248000 MFI | 0.23 fold | 3.01 fold |  |  |  |  |  |  |  |  |  |  |  |  |  | 
variant CD80 IgV-Fc E35D/D46E/M47V/V68M/D90G/K93E (Fc fusion) VIHVTKEVKEVATLSCGHNVSVEELAQTRIYWQKDKKMVLTMMSGEVNIWPEYKNRTIFDITNNLSIMILALRPSDEGTYECVVLKYEKGAFEREHLAEVTLSVKAD | 71900 MFI | 27100 MFI | 1.74 fold | 273000 MFI | 1.5 fold | 6.06 fold |  |  |  |  |  |  |  |  |  |  |  |  |  | 

The remaining lines, values ahead:

MFI at 33.3 nM [1] | MFI at 33.3 nM [2] | Fold change to WT CD80 [3] | MFI at 33.3 nM [4] | Fold change to WT CD80 [5] | Fold change to WT CD80 [6] | Fold change to WT CD80 [7] | Ratio of PDL1:CD28 [8] | Fold change to WT CD80 [9] | MFI at 33.3 nM [10] | Fold change to WT CD80 [11] | IL-2 luciferase reporter, fold increase over WT CD80-IgV-Fc at 5.0 nM [12] | IL-2 luciferase reporter, fold increase over WT CD80-IgV-Fc at 5.0 nM [13] | MFI at 33.3 nM [14] | Ratio of PDL1:CD28 [15] | MFI at 33.3 nM [16] | MFI at 33.3 nM [17] | Fold change to WT CD80 [18] | Fold change to WT CD80 [19] | Fold change to WT CD80 [20] | Binder
13000 MFI | 2700 MFI | 1.59 fold | 249000 MFI | 0.15 fold | 1.09 fold |  |  |  |  |  |  |  |  |  |  |  |  |  |  | variant CD80 IgV-Fc E35D/T41S/M43V/M47I/L70M/A71G (Fc fusion) VIHVTKEVKEVATLSCGHNVSVEELAQTRIYWQKDKKMVLSMVSGDINIWPEYKNRTIFDITNNLSIVIMGLRPSDEGTYECVVLKYEKDAFKREHLAEVTLSVKAD
1590 MFI | 336 MFI | 0.03 fold | 4690 MFI | 0.02 fold | 0.13 fold |  |  |  |  |  |  |  |  |  |  |  |  |  |  | variant CD80 IgV-Fc R29H/E35D/M43V/M47I/I49V (Fc fusion) VIHVTKEVKEVATLSCGHNVSVEELAQTHIYWQKDKKMVLTMVSGDINVWPEYKNRTIFDITNNLSIVILALRPSDEGTYECVVLKYEKDAFKREHLAEVTLSVKAD
12100 MFI | 246 MFI |  |  |  |  | 0.7 fold | 49.1 | 0.3 fold | 30300 MFI | 94.4 fold | 7.4 fold | 7.4 fold |  |  |  |  |  |  |  | variant CD80 IgV-Fc E35D/M47V/V68M/L85Q/K89N (Fc fusion) VIHVTKEVKEVATLSCGHNVSVEELAQTRIYWQKDKKMVLTMMSGDVNIWPEYKNRTIFDITNNLSIMILALRPSDEGTYECVVQKYENDAFKREHLAEVTLSVKAD
10500 MFI | 118 MFI |  |  |  |  | 0.6 fold | 88.8 | 0.2 fold | 26100 MFI | 81.9 fold | 7.9 fold | 7.9 fold |  |  |  |  |  |  |  | variant CD80 IgV-Fc E35D/M47V/N48K/V68M/L85Q (Fc fusion) VIHVTKEVKEVATLSCGHNVSVEELAQTRIYWQKDKKMVLTMMSGDVKIWPEYKNRTIFDITNNLSIMILALRPSDEGTYECVVQKYEKDAFKREHLAEVTLSVKAD
14500 MFI | 641 MFI |  |  |  |  | 0.9 fold | 22.6 | 0.9 fold | 34600 MFI | 113 fold | 5.8 fold | 5.8 fold |  |  |  |  |  |  |  | variant CD80 IgV-Fc M47V/N48K/V68M (Fc fusion) VIHVTKEVKEVATLSCGHNVSVEELAQTRIYWQKEKKMVLTMMSGDVKIWPEYKNRTIFDITNNLSIMILALRPSDEGTYECVVLKYEKDAFKREHLAEVTLSVKAD
30700 MFI | 3510 MFI | 1.64 fold | 258000 MFI | 0.19 fold | 2.58 fold |  |  |  |  |  |  |  |  |  |  |  |  |  |  | variant CD80 IgV-Fc Q27H/E35D/M47I/L85Q/D90G (Fc fusion) VIHVTKEVKEVATLSCGHNVSVEELAHTRIYWQKDKKMVLTMMSGDINIWPEYKNRTIFDITNNLSIVILALRPSDEGTYECVVQKYEKGAFKREHLAEVTLSVKAD
31200 MFI | 644 MFI | 0.74 fold | 117000 MFI | 0.04 fold | 2.62 fold |  |  |  |  |  |  |  |  |  |  |  |  |  |  | variant CD80 IgV-Fc Q33L/E35D/M47I/N48D/A71G (Fc fusion) VIHVTKEVKEVATLSCGHNVSVEELAQTRIYWLKDKKMVLTMMSGDIDIWPEYKNRTIFDITNNLSIVILGLRPSDEGTYECVVLKYEKDAFKREHLAEVTLSVKAD
